The source of these data is patent publication US20210395370A1 (AstraZeneca / MedImmune, published 2021).

In experiment [1] the target is T1, CD22 receptor on the Daudi cell line (human, UniProt P20273 20-847).
T1 sequence (looked up): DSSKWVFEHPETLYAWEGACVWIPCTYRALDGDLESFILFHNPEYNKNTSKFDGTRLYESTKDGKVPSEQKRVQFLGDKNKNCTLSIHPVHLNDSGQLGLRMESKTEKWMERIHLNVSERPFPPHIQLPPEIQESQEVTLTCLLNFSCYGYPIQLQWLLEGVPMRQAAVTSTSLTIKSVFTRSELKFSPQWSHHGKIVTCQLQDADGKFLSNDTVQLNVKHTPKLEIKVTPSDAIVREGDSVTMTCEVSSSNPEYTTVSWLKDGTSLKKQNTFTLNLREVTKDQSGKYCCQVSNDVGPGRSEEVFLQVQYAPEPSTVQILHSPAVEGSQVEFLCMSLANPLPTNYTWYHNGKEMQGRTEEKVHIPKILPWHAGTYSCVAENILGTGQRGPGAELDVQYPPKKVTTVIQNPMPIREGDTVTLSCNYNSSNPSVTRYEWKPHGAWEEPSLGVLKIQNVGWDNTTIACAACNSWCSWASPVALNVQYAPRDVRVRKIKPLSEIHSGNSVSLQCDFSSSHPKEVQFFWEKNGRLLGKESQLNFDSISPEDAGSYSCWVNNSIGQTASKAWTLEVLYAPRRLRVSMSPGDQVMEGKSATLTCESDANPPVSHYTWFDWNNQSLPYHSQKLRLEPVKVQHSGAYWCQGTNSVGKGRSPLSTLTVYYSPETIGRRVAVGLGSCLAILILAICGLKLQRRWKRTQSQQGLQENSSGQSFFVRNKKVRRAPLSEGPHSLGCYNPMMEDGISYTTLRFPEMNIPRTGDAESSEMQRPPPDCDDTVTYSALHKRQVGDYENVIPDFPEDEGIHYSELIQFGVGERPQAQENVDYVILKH
Kind of experiment: cell-based or functional assay.

Experiment [2] has as its target T1, CD22 receptor on the Daudi cell line. Description: cell-based or functional assay. The source holds these as a separate data set.

B1: CAT-8015 (other)
VH: MEVQLVESGGGLVKPGGSLKLSCAASGFAFSIYDMSWVRQTPEKCLEWVAYISSGGGTTYYPDTVKGRFTISRDNAKNTLYLQMSSLKSEDTAMYYCARHSGYGTHWGVLFAYWGQGTLVTVSAKASGGPEGGSLAALTAHQACHLPLETFTRHRQPRGWEQLEQCGYPVQRLVALYLAARLSWNQVDQVIRNALASPGSGGDLGEAIREQPEQARLALTLAAAESERFVRQGTGNDEAGAANGPADSGDALLERNYPTGAEFLGDGGDVSFSTRGTQNWTVERLLQAHRQLEERGYVFVGYHGTFLEAAQSIVFGGVRARSQDLDAIWRGFYIAGDPALAYGYAQDQEPDARGRIRNGALLRVYVPRSSLPGFYRTSLTLAAPEAAGEVERLIGHPLPLRLDAITGPEEEGGRLETILGWPLAERTVVIPSAIPTDPRNVGGDLDPSSIPDKEQAISALPDYASQPGKPPREDLK
VL: MDIQMTQTTSSLSASLGDRVTISCRASQDISNYLNWYQQKPDGTVKLLIYYTSILHSGVPSRFSGSGSGTDYSLTISNLEQEDFATYFCQQGNTLPWTFGCGTKLEIK
modifications: Asn-358 partially deamidated to Asp-358 and iso-Asp-358 in the preparations tested (extent differs by pool)
Regarding B1, in experiment [1], the “Relative Potency (%) in apoptosis bioassay (Caspase-Glo 3/7, Daudi cells; EC50 of Reference Standard / EC50 of test sample); sample: QHP Eluate Pool, large scale (17% pre-peak)” value came to 75% and the “Relative Potency (%) in apoptosis bioassay (Caspase-Glo 3/7, Daudi cells; EC50 of Reference Standard / EC50 of test sample); sample: QHP Load Pool, large scale (50.3% pre-peak)” value came out at 51%. In experiment [2], the “Relative Potency (%) in apoptosis bioassay (Caspase-Glo 3/7, Daudi cells; EC50 of Reference Standard / EC50 of test sample); sample: QHP Eluate Pool, bench scale (16.5% pre-peak)” value was 80% and the “Relative Potency (%) in apoptosis bioassay (Caspase-Glo 3/7, Daudi cells; EC50 of Reference Standard / EC50 of test sample); sample: QHP Load Pool, bench scale (53.8% pre-peak)” value turned out to be 52%.
